The source of these data is patent publication US11779649B2, “Antibodies to PMEL17 and conjugates thereof” (Novartis AG, priority 2018, dated 2023).

In test [1] the test system is 92.1-luciferase subcutaneous xenografts. Briefly: 92.1-luciferase subcutaneous xenograft tumor growth in female nude mice. The class given is in vivo. The conditions noted are these: single i.v. injection, FIG. 18. On the procedure: Treatment (single dose i.v. injection) was performed 17 days post tumor inoculation. Values are mean±SEM; sample size, (n=5-12 mice per group). Initial tumor volume at day 0 was approximately 200-250 mm^3.
Treatments (single dose i.v. injection) were performed 17 days post tumor inoculation. Values represent mean±SEM; sample size, (n=5-6 mice per group). Initial tumor volume at day 0 was approximately 300-325 mm^3. (FIG. 16).
Treatment (single dose i.v. injection) was performed 14-17 days post tumor inoculation. Values are mean±SEM; sample size, (n=5-12 mice per group). Initial tumor volume at day 0 was approximately 200-250 mm3.

A further test has as its system 92.1 uveal melanoma. Briefly: Resazurin-based viability assay, 92.1 uveal melanoma cells. The format is cell-based. The conditions noted are these: 92.1; Table 10; read-out: GI50. On the procedure: (§1) Following drug treatment for 96 or 120 hours, cell viability and proliferation were determined using a resazurin-based viability assay. Briefly, cells were incubated with a resazurin-based solution and color change was detected by absorbance with a spectrophotometer and used as a readout of cell viability. Data presented as mean of 3 independent replicates and relative to PBS-treated cells (control).
Following drug treatment for 96 or 120 hours, cell viability and proliferation were determined using a resazurin-based viability assay. Briefly, cells were incubated with a resazurin-based solution and color change was detected by absorbance with a spectrophotometer and used as a readout of cell viability. Data presented as mean of 3 independent replicates and relative to PBS-treated cells (control) (FIG. 6).
Following drug treatment for 96 or 120 hours, cell viability and proliferation were determined using a resazurin-based viability assay. Data presented as mean of 3 independent replicates and relative to PBS-treated cells (control) (FIG. 8).
as §1
In general terms: Resazurin is reduced to fluorescent resorufin, in cell work by metabolically active cells.

Another test has as its system PMEL17. Kind of test: Cross-reactivity (cross-specificity profile) of anti-PMEL17 IgGs in dose response FACS. The format is binding. Further details: key: h/c/r/m: human/cyno/rat/mouse; h/c/r: human/cyno/rat; h/c/(m): human/cyno/mouse; h/c: human/cyno. The conditions noted are these: h human, c cyno, r rat, m mouse. How it is done: (§2) The cross-specificity of the IgGs was evaluated in does response FACS on G-361 (human melanoma), HKB11-cyno-PMEL17, HKB11-rat PMEL17 and B16-F10 (mouse PMEL17 expressing melanoma) (Table 3). Testing on G-361 was performed using a detection antibody labelled to PE. In contrast, an Alexa-Fluor labelled detection antibody had to be used for testing the candidates on the other cell lines so as to reach detectable signals.
IgGs were classified into several epitope groups according to their cross-specificity profiles.

Another test addresses T1, human PMEL17 (Homo sapiens, UniProt P40967).
T1 construct: G-361 melanoma cell line expresses human PMEL17 at a lower level compared to the HKB11-human PMEL17 overexpressing cell line; endogenous in cells; host or cells: G-361 (human melanoma)
T1 sequence (P40967 25-661): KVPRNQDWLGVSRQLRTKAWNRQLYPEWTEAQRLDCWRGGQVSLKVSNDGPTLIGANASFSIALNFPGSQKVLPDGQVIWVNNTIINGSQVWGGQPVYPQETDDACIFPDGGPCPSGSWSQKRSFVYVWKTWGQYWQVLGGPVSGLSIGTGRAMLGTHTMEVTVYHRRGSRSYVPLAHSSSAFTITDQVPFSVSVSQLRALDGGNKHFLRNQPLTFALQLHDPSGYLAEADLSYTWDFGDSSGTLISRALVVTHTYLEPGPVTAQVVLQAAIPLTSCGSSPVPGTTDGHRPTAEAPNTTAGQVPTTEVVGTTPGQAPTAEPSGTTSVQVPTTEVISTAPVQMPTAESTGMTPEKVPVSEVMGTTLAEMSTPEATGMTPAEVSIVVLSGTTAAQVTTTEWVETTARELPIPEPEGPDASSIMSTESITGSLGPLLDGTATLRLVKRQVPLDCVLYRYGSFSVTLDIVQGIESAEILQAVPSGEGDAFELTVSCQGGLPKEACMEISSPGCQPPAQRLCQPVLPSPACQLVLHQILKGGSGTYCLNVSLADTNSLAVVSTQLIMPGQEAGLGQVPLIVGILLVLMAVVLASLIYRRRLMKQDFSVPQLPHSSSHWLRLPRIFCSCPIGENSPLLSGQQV
Kind of test: Apparent affinity by FACS titration of IgGs on G-361 melanoma cell line. The conditions noted are these: G-361, Alexa Fluor-labelled detection antibody; read-out: FACS EC50 (nM) G-361 (Alexa Fluor). The format is binding. On the procedure: (§3) Purified IgGs were titrated on a variety of PMEL17 expressing and PMEL17 non expressing cell lines (for control) to determine EC50 values. Cells were harvested using Accutase, adjusted to ˜4×10^6 cells/ml into FACS buffer (PBS, 3% FCS and 0.02% Na-Azide) and kept on ice to avoid internalization. 15 μl of cell suspension/well were transferred into 384 well V-bottom plates (Greiner, Cat #781280) and incubated with 15 μl of IgGs at different concentrations (most commonly from 200 to 3.5×10−3 nM) for 1 hour at 4° C., gently shaking. Following incubation, cells were washed three times with FACS buffer. After each washing step, cells were centrifuged (250×g, 5 min, 4° C.) and carefully resuspended. 15 μl of detection antibody conjugated to PE (PE-conjugated goat anti-human IgG, F(ab′)2 fragment specific, 1:150 in FACS buffer; Jackson Immuno Research, #109-116-097) or Alexa Fluor (Alexa Fluor-conjugated goat anti-human IgG, F(ab′)2 fragment specific, 1:150 in FACS buffer; Jackson Immuno Research, #109-606-097) were added and samples were incubated for 45 minutes to 1 hour on ice in the dark, gently shaking. After 3 washing steps, cells were resuspended in 30 μl of FACS buffer and samples were measured using the IntelliCyt HTFC device. EC50 values were calculated using the Graphpad Prism software. G-361 melanoma cell line expresses human PMEL17 at a lower level compared to the HKB11-human PMEL17 overexpressing cell line, and therefore allows a more precise ranking of the clones depending on their apparent affinity on cells.
The cross-specificity of the IgGs was evaluated in does response FACS on G-361 (human melanoma), HKB11-cyno-PMEL17, HKB11-rat PMEL17 and B16-F10 (mouse PMEL17 expressing melanoma) (Table 3). […]

The target in the next test is T2, mouse PMEL17 (Mus musculus, UniProt Q60696).
T2 construct: B16-F10 (mouse PMEL17 expressing melanoma); endogenous in cells; host or cells: B16-F10 (mouse melanoma)
T2 sequence (Q60696 24-626): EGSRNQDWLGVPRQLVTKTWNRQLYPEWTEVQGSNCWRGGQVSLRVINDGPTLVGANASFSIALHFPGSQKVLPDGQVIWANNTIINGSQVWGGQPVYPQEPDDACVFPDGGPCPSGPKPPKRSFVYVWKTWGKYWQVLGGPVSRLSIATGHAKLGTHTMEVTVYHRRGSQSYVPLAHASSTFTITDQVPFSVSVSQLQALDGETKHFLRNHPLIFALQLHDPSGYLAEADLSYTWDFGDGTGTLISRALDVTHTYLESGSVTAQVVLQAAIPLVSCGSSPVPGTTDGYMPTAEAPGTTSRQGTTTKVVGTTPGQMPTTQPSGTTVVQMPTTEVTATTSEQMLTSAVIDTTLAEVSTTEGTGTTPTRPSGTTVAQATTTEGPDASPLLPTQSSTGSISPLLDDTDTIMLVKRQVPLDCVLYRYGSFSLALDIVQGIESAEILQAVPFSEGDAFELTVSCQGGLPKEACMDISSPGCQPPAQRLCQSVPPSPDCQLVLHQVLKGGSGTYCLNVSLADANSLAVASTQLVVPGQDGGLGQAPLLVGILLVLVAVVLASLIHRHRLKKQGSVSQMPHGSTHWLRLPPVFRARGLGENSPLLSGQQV
Kind of test: Apparent affinity by FACS titration of IgGs on B16-F10 melanoma cells. The format is binding. The conditions noted are these: Alexa Fluor. How it is done: as §3, §2
Background: A flow cytometer gives signals particle by particle.

For the next test, the system named is UACC-62. Kind of test: FACS titration of IgGs on UACC-62 cells. The conditions noted are these: UACC-62, PE-labelled detection antibody. The format is binding. On the procedure: as §3

What is called GI50 is the concentration giving 50% growth inhibition. As a reminder, the EC50 is the concentration needed to bring the measured effect to its halfway point.

B1: Fc Silent G1-3J-DAR2 (E152C)-(B1) (conjugate)
heavy: QVQLVQSGAEVKKPGSSVKVSCKASGGTFSDYAITWVRQAPGQGLEWMGGIIPIFGTANYAQKFQGRVTITADESTSTAYMELSSLRSEDTAVYYCAREGGLLTDISYSRYWFAYWGQGTLVTVSS
light: SYELTQPLSVSVALGQTARITCSGDALRDKFVYWYQQKPGQAPVLVIYDDNNRPSGIPERFSGSNSGNTATLTISRAQAGDEADYYCQSWDHSYSLVVFGGGTKLTVLGQPKAAPSVTLFPPSSEELQANKATLVCLISDFYPGAVTVAWKADSSPVKAGVETTTPSKQSNNKYAASSYLSLTPEQWKSHRSYSCQVTHEGSTVEKTVAPTECS
modifications: left off: a dimerising Fc or GST
B1: the tumor growth result in test [1] is “inhibited tumor growth in a dose-dependent manner”. In addition, in the test on 92.1 uveal melanoma, the GI50 is 0.000278 µM.

B2: MOR024353: anti-PMEL17 antibody (IgG) (antibody, V domains shown)
VH: QVQLVQSGAEVKKPGSSVKVSCKASGGTFSDYAISWVRQAPGQGLEWMGGIIPIFGDANYAQKFQGRVTITADESTSTAYMELSSLRSEDTAVYYCAREGSSYFYMAYWGQGTLVTVSS
VL: SYELTQPLSVSVALGQTARITCSGDNIGSKLASWYQQKPGQAPVLVIYDDSNRPSGIPERFSGSNSGNTATLTISRAQAGDEADYYCAATAGDRWAYVFGGGTKLTVL
Turning to B2, the “Cross spe profile (based on C14 detection ab)” value with PMEL17 was “h/c”. Further, the figures for the concentration giving a half-maximal response (EC50) with human PMEL17 and in the test with mouse PMEL17 were 62.8 nM and greater than 100 nM, respectively. The “UACC-62 (PE)” value in the test with UACC-62 was “Negative”.
